± gives the standard deviation of the averaged measurements.
Tested on: Saccharomyces cerevisiae
Assay: protein stability index of tFT-peptide fusion (C-terminal peptide) (PSI (0-1 scale)); higher = more stable (slower turnover)
Conditions: genetic background: wild type; temperature: 30 C
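Note: PSI is a weighted mean of sequencing reads over stability bins, variants kept only with over 10 reads, mCherry proximal and sfGFP distal, peptide attached via GGGS linker.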

| Sequence | protein stability index |
| --- | --- |
| PYSFDTNFVLIS | 0.643 ± 0.1 |
| PYTPRSTSPPPL | 0.7702 ± 0.0066 |
| QAGSTEERFCGG | 0.664 ± 0.02 |
| QAKKSLTTKTSD | 0.658 ± 0.024 |
| QASRGSLPSEIE | 0.6414 ± 0.0029 |
| QCESVRLNFGGR | 0.704 ± 0.021 |
| QDAPPSTPPRPL | 0.786 ± 0.15 |
| QDFDHPNSIRLP | 0.671 ± 0.027 |
| QEKTKTYPIPQR | 0.688 ± 0.041 |
| QERWGRGWGTRG | 0.709 ± 0.072 |
| QESKRKDMKERN | 0.75 ± 0.049 |
| QEVTEVFSSTSY | 0.658 ± 0.01 |
| QEWAQYTHSEQP | 0.735 ± 0.026 |
| QFDRDCAWRPDV | 0.653 ± 0.039 |
| QFGPSENVEFRS | 0.742 ± 0.036 |
| QGDPTCLKGINE | 0.669 ± 0.05 |
| QGGREGSRQRRV | 0.629 ± 0.013 |
| QGIKRPSSNKSK | 0.731 ± 0.13 |
| QGNEQFRYKILQ | 0.598 ± 0.098 |
| QGSRRPRSVVWG | 0.708 ± 0.038 |
| QGTNKRRNKNWE | 0.704 ± 0.03 |
| QGVGDILARVQG | 0.697 ± 0.048 |
| QHFIRGWAWPTV | 0.729 ± 0.034 |
| QHHRTSIPSSPV | 0.671 ± 0.025 |
| QIGKQAAATGTA | 0.708 ± 0.049 |
| QIHGQKNFKTLD | 0.704 ± 0.078 |

| Sequence | protein stability index |
| --- | --- |
| QIIRKKSKVPTH | 0.686 ± 0.057 |
| QKDTGKETTYRA | 0.681 ± 0.037 |
| QKKELKTKKKER | 0.663 ± 0.016 |
| QKKKKKNTKKKL | 0.701 ± 0.054 |
| QKKNQNKQEQKL | 0.683 ± 0.021 |
| QKKNSKKIKPKR | 0.694 ± 0.026 |
| QKKRKKTNQKNL | 0.621 ± 0.041 |
| QKNKNTEKINTK | 0.663 ± 0.018 |
| QKRKQKKIIQRM | 0.652 ± 0.013 |
| QKTLKPEQVAEH | 0.68 ± 0.027 |
| QKTVRDIRIAAL | 0.591 ± 0.086 |
| QLETFGRDLTIP | 0.716 ± 0.11 |
| QLGGLHIPHPLR | 0.899 ± 0.028 |
| QNKKNKNKKKKE | 0.706 ± 0.027 |
| QNKTQKSKKKKS | 0.734 ± 0.038 |
| QPPLSDYHQARR | 0.683 ± 0.023 |
| QPPPPPPRPPPP | 0.504 ± 0.016 |
| QPPPPSPPPPLP | 0.653 ± 0.047 |
| QPTCSLRAGPRD | 0.713 ± 0.036 |
| QPVGAAQWGSQS | 0.715 ± 0.028 |
| QQRKGTKDNGRE | 0.707 ± 0.095 |
| QREKGEKERTET | 0.6783 ± 0.004 |
| QRGGEGWILGGV | 0.687 ± 0.026 |
| QRPSRAQGKSYE | 0.766 ± 0.014 |
| QRRRYKHEIKRM | 0.648 ± 0.0085 |
| QRSEHGAHPTEP | 0.701 ± 0.035 |

| Sequence | protein stability index |
| --- | --- |
| QRSFSLRLSAPV | 0.681 ± 0.029 |
| QRTAACGSQRNR | 0.682 ± 0.025 |
| QSILVCELGMEG | 0.67 ± 0.051 |
| QSKIKNKNIKIK | 0.671 ± 0.017 |
| QSLRRLSSSSCI | 0.707 ± 0.058 |
| QSRAMFELMGIS | 0.652 ± 0.004 |
| QSRHCHPTPKRL | 0.65 ± 0.031 |
| QSRYASDLRNGL | 0.699 ± 0.065 |
| QSSWVGRWVRGG | 0.659 ± 0.02 |
| QSVSSTGQARLS | 0.682 ± 0.033 |
| QSWVNIGCRGAW | 0.72 ± 0.012 |
| QTATIKGTLIAM | 0.585 ± 0.0076 |
| QTDRPPPVSPPR | 0.671 ± 0.047 |
| QTKSPAKREKTC | 0.665 ± 0.058 |
| QTVFRQRLKEPF | 0.644 ± 0.038 |
| QVFTLFPASYPL | 0.688 ± 0.057 |
| QVKESDGEATKS | 0.592 ± 0.024 |
| QVPDPSVNQPPS | 0.699 ± 0.028 |
| QWAAVCAVVGGG | 0.684 ± 0.055 |
| QWAGGQERTAGK | 0.583 ± 0.024 |
| QWIINVSRSIRK | 0.654 ± 0.031 |
| RAARQRSVYQHG | 0.6481 ± 0.0037 |
| RACSLWVSVVQP | 0.67873 ± 2.3e-05 |
| RADGHGARFRVR | 0.799 ± 0.009 |
| RAFDGYNSVDML | 0.663 ± 0.023 |
| RAKLKKNKRRCK | 0.719 ± 0.0067 |

| Sequence | protein stability index |
| --- | --- |
| RALGKRFIQARD | 0.727 ± 0.022 |
| RALPPPLCPPPH | 0.606 ± 0.056 |
| RAPMQPTATQAP | 0.654 ± 0.035 |
| RAPPKTTPHPAE | 0.693 ± 0.052 |
| RARELGVPPPPP | 0.579 ± 0.066 |
| RARGGGAEPGRN | 0.685 ± 0.027 |
| RARGQPTKDIAS | 0.643 ± 0.018 |
| RARNRPKTEYHI | 0.6826 ± 0.0025 |
| RASFLLPPPAPP | 0.6311 ± 0.0049 |
| RAVFFLQAHCSL | 0.674 ± 0.0072 |
| RAWPLLPTCPPP | 0.7 ± 0.019 |
| RCFGPPSRLAYF | 0.683 ± 0.017 |
| RCGDGLSRLTPL | 0.71 ± 0.032 |
| RCGGGGSVSFWW | 0.693 ± 0.049 |
| RCGLSGGRPPVL | 0.6475 ± 0.0016 |
| RCGRVEKRIGRV | 0.756 ± 0.086 |
| RCIAAEFFRVHP | 0.685 ± 0.019 |
| RCIASHRLSLRT | 0.682 ± 0.037 |
| RCTRAAGLAAPA | 0.691 ± 0.0088 |
| RCTWEATYNLRY | 0.749 ± 0.092 |
| RCVSLDVPPTGA | 0.688 ± 0.013 |
| RDALVNADKIGR | 0.703 ± 0.061 |
| RDAWLGMSQYTF | 0.7302 ± 0.0051 |

From the supplement of paper PMC10724198
